Test results taken from the RNAGym collection of RNA variant scans (doi:10.1073/pnas.2313332121).
Variants at the floor of the assay were thinned out.

B1: TPR 5TU (parent)
chain: GGAUCUUCUCGAUCUAACAAAAAAGACAAAUCUGCCACAAAGCUUGAGAGCAUCUUCGGAUGCAGAGGCGGCAGCCUUCGGUGGCGCGAUAGCGCCAACGUUCUCAACUAUGACACGCAAAACGCGUGCUCCGUUGAAUGGAGUUUAUCAUG

Variants of: B1
Experiment: polymerase ribozyme fitness, log enrichment relative to wild type (log ratio); higher = more active; in vitro selection for triplet polymerase activity
How it was run: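 Fitness measures genotype enrichment against wild-type enrichment on a logarithmic scale, with inverse-variance-weighted averaging of replicates. The logarithm is base 2, and genotypes were kept only with ≥10 input reads and ≥1 read per output in Illumina sequencing. The sequenced libraries came from one triplicate in vitro selection round, including frozen incubation at −7 °C, of PCR-built, transcribed mutant libraries of each subunit of a heterodimeric triplet polymerase ribozyme.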

Variant | polymerase ribozyme fitness (log ratio)
U56G C79U U90A A107U C114G | ≤ -4.2
U55G G83C U135A | -1.97
U55G G84U A106G | -1.26
U56A A60U C93U G141U | -3.71
U56A G128C | -2.8
U56A A91G | -3.41
U56A C85U A142U | -1.06
U56A C57A U144A | -0.177
U56G C63U C93G | -3.47
C57A A60G G74U | -4.12
U56G G68U G92A C93A A106U A115U A150C | ≤ -4.2
U56A G141A | 0.775
U56A C85A | -2.02
U56A C85U | -0.564
U56A C85G | -2.44
U56A C69A G84A | -1.63
U56A G92A U148G | ≤ -4.2
C57A G92U C105G | -1.2
U56A G71U U78G C85U G143U | ≤ -4.2
U56G G100U U134A U146A U148A | ≤ -4.2
C57G A91G G100A C123A C131A | ≤ -4.2
U56A C75U G143A | -0.711
U56A G59A C105G A110G A150C | ≤ -4.2
U56G G84U C85A C99U | ≤ -4.2

Variant | polymerase ribozyme fitness (log ratio)
C57A A64G A66G C118U A147C G152U | ≤ -4.2
U56A G80U | -0.898
U56G G68U G81A G84A A91C U135C | ≤ -4.2
U56A A60G | 0.416
U56C C95A U102A | -1.87
C57A C87A C116G U127A C129U A137G C149U | ≤ -4.2
C57A G94A | -0.487
U56A A89U C96G | -1
C57A G74U C85A U130G | ≤ -4.2
U56A G81C A120C G141A | 0.526
U55G G83A C103U U135A | -2.23
C57A A89U A98G | 0.118
U56A G152U | -2.37
U56A G152A | -2.52
C57A G117U | 0.691
C57A G83C G141A | -0.777
U56A G59A A97U C149U | -1.48
U56A C118U C123G U144C | -0.722
U55G G84A C99A A120G C131U | -2.08
C57A U135C | -1.62
U56A A110C | -3.84
U56A C93U G141A | -3.72
U56A C87U A98U C116G | 0.0809
C57A C76G A113G G126A C129A U134G | ≤ -4.2

Variant | polymerase ribozyme fitness (log ratio)
C57A A91G | -2.76
U56G C63A A120G | -0.244
U56A G92U U102A U134C | -1.59
C57A G58U | 0.207
C57A G58A | 1.15
U56A C96U U145A G152A | -2
U56A U146A U148C | -2.96
C57A C93U | -1.11
C57A C93G | -3.05
U56A G92C U139A G140U | -3.76
U56A U82C C93U | -1.41
U56A G58C G92U C93A C118A | -3.82
U56A G88C A142U | ≤ -4.2
U56A G80U G84U U102G G124U | ≤ -4.2
C57A G65A U82G | -0.673
C57G A91G | -4.08
U56A G58C G92A A106G | -3.51
U56G C93U A110U | -3.71
U55G U82G C85A A97C U104C G136U | -3.65
C57A C95U C149U | -0.536
U55G G94A A98U C118A | -1.56
C57A U139A | -3.84
U55G U56A G68A C96U | ≤ -4.2
U56A C87G G94C U104C G117U A119U U134C | -3.94

Variant | polymerase ribozyme fitness (log ratio)
U56A A142U | -0.643
U56A G84A U90C C125A | ≤ -4.2
C57G A91G A147C | -3.13
U56A C95U A98U | -1.6
U56A C95U A98C | -0.392
C57A G80C A137C G143U | ≤ -4.2
U56A C85U G128U | -2.89
U56A A91G U148C | -3.72
C57G A89G C93A | ≤ -4.2
U56A C69U A106G | -1.79
U56A C57U U82A G84A G92U A106C G143C | ≤ -4.2
U56G C103A A122U U146A | -2.78
C57A A138C | -3.77
U56A A66G C95U C99U A120G | ≤ -4.2
U56G C76U A91G A122U C149G | ≤ -4.2
U56A A66C C72U G92A C93U C95A C116A | ≤ -4.2
C57A C87U C103G | -2.01
U56A U144A | -0.302
U56C U82G | -0.541
U56A G136A | -0.463
U55G G84A A89U C103U | -1.64
C57A A73G C125A | -0.303
U56A C93A | -2.63
U56A C93G | -3.55

Variant | polymerase ribozyme fitness (log ratio)
U56A C93U | -2.13
U56G G84U A97U C99G G133U | ≤ -4.2
U56C G58A G84A U145G | 0.113
U56A A73C G94C | -3.51
U56G C93U A107G A120U | -4.12
U56A G58A G88C | -3.84
C57A G133U | -3.13
U56A C69G U148A | -4.17
U56A G70C | -3.24
C57A A60G C79G | -3.6
C57A U127A | -3.56
U55G G86A U139G | -1.96
U56G U78G C79U G86A C87G C95A A115U G152C | ≤ -4.2
C57A A89G C95U A119U A120U C125U | -1.54
C57A C72U A150U | -0.157
U56A G117A | -0.176
U56A G117C | -0.369
U56A G58A C72U C87U U109G G136A U144C | -4.13
C57A G62C C76U A91U C108U G140U U144G C149G | ≤ -4.2
U56C U78G G80A G84C | ≤ -4.2
U56G U78C C85A C123U | -1.43
C57A G70U G80A G83C C87U C108A | ≤ -4.2
U56G U135A | -1.84
U56G U135G | -3.68

Variant | polymerase ribozyme fitness (log ratio)
U56A U148G | -3.6
C57A A113U | -1.86
U56G G84A | -3.48
U56A A73G C87G | ≤ -4.2
C57A G59U U77A C99G | ≤ -4.2
U56G G58C C99G | -2.63
U56A U61C | -3.45
U56A G62A C76U G81A C87U C95U | -1.49
U56A C57G A113C | -1.82
U56A U61G A91C U127C U148C A150U | ≤ -4.2
U55G U134A U139A | ≤ -4.2
U56A C96U | -0.499
C57A U102C C103U | -2.76
U56A A73G | -0.236
U56G U146G | -3.46
U56G C57A G81A A107C G117A | ≤ -4.2
U56A A115G G124C | -1.61
U56A C57U G86C A98C G141A G152A | -3.31
U56A C96U G133A | ≤ -4.2
U56A G86A | -1.16
U56A G71U C125G | -3.78
U56C G68U A121G U148A | ≤ -4.2
C57A C75U G92C G140U | ≤ -4.2
U56G G92U A97U C105U | -1.61

Variant | polymerase ribozyme fitness (log ratio)
U56A C95A C103G C132A U146A | ≤ -4.2
C57A G100C | ≤ -4.2
U55G G88U A97G U135G U148C | ≤ -4.2
U56C C85A C131G | -3.7
U56A C96G U139G | -0.96
U56G G59C C85G U135A | -2.51
C57A G65A G84U A120G | -3.08
U56A C95U C96G A110G A119G G152U | -4.13
U56C C57U A89U C95G A137C | -4.07
U56C C96U | -0.496
U56C G59A G92U U135A | -2.19
U56A U109C | -3.5
U56A A91U C125U C132U G140A U148A | ≤ -4.2
U56A G58C C93U U127G U145A | -3.83
U56A U78G G92A U144A | ≤ -4.2
U56G G68U | ≤ -4.2
U55G U134C G143U | -1.98
U56G G81U A91G | -3.38
U56A C96A C103U | 0.293
U56G C76A U77C C93G C105A U109G | ≤ -4.2
U56A C103U | -0.0268
U56A C103G | -0.914
U56A U82C C87G A150U | -3.31
